From patent US11643670B2, “Methods of enhancing chromosomal homologous recombination” (Massachusetts Institute of Technology, priority 2018, dated 2023)

Experiments:
RAD51 puncta = assay: Immunocytochemistry for RAD51 puncta in zygotes; type: cell-based, mouse
Method: Zygotes were fixed overnight at 4° C. in 4% PFA+0.1% Tween-20 in PBS and then briefly transferred to acidified Tyrode's (Sigma T1788) to remove the zona. After washing in PBS+0.1% Tween-20 (PBST), zygotes were permeabilized in PBS+1% Triton X-100 for 1 hour at 4° C. and then blocked for 1 hour at room temperature in blocking solution (PBS+3% BSA+5% normal goat serum). Primary antibody (rabbit anti-RAD51, Abcam ab63801, 1:500) was diluted in blocking solution and applied to coverslips overnight at 4° C. Cells were washed 3 times in PBST before application of secondary antibody (goat anti-rabbit IgG conjugate, Alexa Fluor 488, ThermoFisher A-11008) diluted in blocking solution for 1 hour at room temperature. Nuclei were counterstained with DAPI and coverslips were mounted to slides with Fluoromount Aqueous Mounting Medium (Sigma F4680). Cells were imaged on an Olympus Fluoview FV1000 confocal microscope with a 60× oil immersion objective and variable digital zoom. Raw image files were exported to FIJI^41 for Z-projection (sum slices), channel splitting, and scale bar generation.
Nonetheless, to more directly test the timing of zygotic ICHR, immunocytochemistry (ICC) was performed for RAD51 in uninjected, RAD51-injected, Cas9-injected (with Chd2-targeting crRNA), and Cas9- and RAD51-injected zygotes at three time points: G1 [9 hours post-fertilization (hpf), 1-hour post-injection (hpi)], G2 (14hpf, 6hpf, post S-phase), and M-phase (16hpf, 8hpi).

R1684H locus = assay: Genotyping of F1 offspring of F0 Chd2^R1684H/R1684H animals made by the IVF strategy; type: in vivo, mouse; details: F0 homozygotes (IVF strategy including RAD51) crossed with wildtype C57Bl/6N
Method: Tail snips (˜0.5 cm length) were collected from animals, placed in 75 μL alkaline lysis buffer (25 mM NaOH, 0.2 mM EDTA), and incubated at 95° C. for 30 minutes. Digestion was stopped via addition of 75 μL neutralization buffer (40 mM Tris-HCl pH 5.0). Samples were stored at 4° C. until genotyping.
Chd2^R1684H genotyping was performed via a two-step, nested approach. Except for experiments described in FIGS. 3A-3G, all 8 μL of embryo DNA were used as input for the initial, long round of PCR. Genotyping of mouse pups and adult animals was performed using 2 μL of purified tail DNA. For all embryo genotyping, reactions mixtures were set up in a UV-sterilized laminar flow hood using sterile reagents and filter tips to avoid contamination. All PCR was performed using Biolase DNA Polymerase (Bioline), fresh aliquots of dNTPs (New England Biolabs), and 2% DMSO (final concentration). Primer pair #1 was used for FIGS. 1A-1E, FIGS. 2A-2E, FIGS. 3A-3G, FIG. 5, FIGS. 7A-7C, FIG. 8, and FIG. 9. All other experiments utilized primer pair #2 to further rule out large deletions that could disrupt primer binding sites. 20 cycles of amplification were performed using 30 second extension and annealing times and an annealing temperature of 67° C. Nested PCR was then performed using 2 μL of the initial 25 μL PCR reaction as input. […]

B1: RAD51: recombinant human strand exchange protein RAD51 (Creative Biomart RAD51-134H), transcript variant 4 (protein, UniProt Q06609 2-339, looked up)
DNA repair protein RAD51 …: AMQMQLEANADTSVEEESFGPQPISRLEQCGINANDVKKLEEAGFHTVEAVAYAPKKELINIKGISEAKADKILAEAAKLVPMGFTTATEFHQRRSEIIQITTGSKELDKLLQGGIETGSITEMFGEFRTGKTQICHTLAVTCQLPIDRGGGEGKAMYIDTEGTFRPERLLAVAERYGLSGSDVLDNVAYARAFNTDHQTQLLYQASAMMVESRYALLIVDSATALYRTDYSGRGELSARQMHLARFLRMLLRLADEFGVAVVITNQVVAQVDGAAMFAADPKKPIGGNIIAHASTTRLYLRKGRGETRICKIYDSPCLPEAEAMFAINADGVGDAKD
Question: For B1, which “number of RAD51 puncta per zygote” value (RAD51 puncta; G2 zygotes) is on record?
Answer: The value was “single”.

Question: And the “zygotes Negative for RAD51 puncta” value (RAD51 puncta; number of zygotes, G2 (14hpf))?
Answer: The value was 25.

Question: What about the “zygotes Positive for RAD51 puncta” value (RAD51 puncta; number of zygotes, G2 (14hpf)) of the same molecule?
Answer: Its value is 6.

Question: What about the “F1 offspring heterozygous for the R1684H mutation” value (R1684H locus) of the same molecule?
Answer: Its value is 100%.
